Reference: the RNAGym collection of RNA variant scans (doi:10.1073/pnas.2313332121)
Variants at the floor of the assay were thinned out.

B1: TPR 5TU (parent)
chain: GGAUCUUCUCGAUCUAACAAAAAAGACAAAUCUGCCACAAAGCUUGAGAGCAUCUUCGGAUGCAGAGGCGGCAGCCUUCGGUGGCGCGAUAGCGCCAACGUUCUCAACUAUGACACGCAAAACGCGUGCUCCGUUGAAUGGAGUUUAUCAUG

Variants of: B1
Assay: polymerase ribozyme fitness, log enrichment relative to wild type (log ratio); higher = more active; in vitro selection for triplet polymerase activity
Summary of the method: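 For each subunit of a heterodimeric triplet polymerase ribozyme, a mutant library was built by PCR and transcribed, then taken through a single in vitro selection round in triplicate. Selection involved annealing to a biotinylated primer, the partner subunit and triplets, incubation frozen at −7 °C, gel excision of extended constructs, capture on streptavidin beads and RT-PCR. Genotypes were retained after Illumina sequencing of inputs and outputs only with ≥10 input reads and ≥1 read in each output. Fitness is defined as the logarithm of a genotype's enrichment relative to wild-type enrichment, using inverse-variance-weighted averages across replicates, with the logarithm taken to base 2.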

Variant | polymerase ribozyme fitness (log ratio)
U6G U31C G50A A147C | -2.65
U7C C18G C43G G48A G58C C63U C76G | ≤ -4.2
U7C A12C C87A C105A C116G A138U G152U | ≤ -4.2
U7A G25A G50U G84U | ≤ -4.2
U7C G48C C85U | -3.27
U7A G83A A121G U145G U148G | ≤ -4.2
U7A A26C U31A G34C G70U U78G G117A C118U A119C | ≤ -4.2
U7C A19C C57G C85U C96U U148A | ≤ -4.2
U6G U53A | -0.949
U7A A20G C35U A47G G83A C96A | ≤ -4.2
U7A U111G | -4.19
U6G G11A G48U G50U A66G U90A G100U U102A A122C | ≤ -4.2
U7A A29C C85U C87U G143C A150G | ≤ -4.2
U6G C57A C85A C95U | -0.326
U7A A28G A40U A49C G50C C87A U144G | ≤ -4.2
U6G G81C A91G | -2.46
U6G G50U C85U C116U | 0.202
U6G C85A C87G A98U A106C U148A | ≤ -4.2
U6G U9C A12C U45A C76G A91C C96G | ≤ -4.2
U7A A23C G50U G59A A73C G86U C95G C108U | ≤ -4.2
U7A A49C C103A U139A | ≤ -4.2
U7C A16U A49G G92C | ≤ -4.2
U6G U31G G84U | -0.345
U6G G83A | -0.0531

Variant | polymerase ribozyme fitness (log ratio)
U7A A20U U31G C116U | -3.58
U6G G100A A107U A113U | ≤ -4.2
U7C G50A G84U C87A U151A | ≤ -4.2
U6G G86U G152U | -4.12
U7A A26G U31C G50U A73C G86A U104G | ≤ -4.2
U7A G71A C96G | ≤ -4.2
U7C A17G A119U | -3.03
U6G U7C U55A U135A | -4.01
U7A U33G C79A C116U U144C | ≤ -4.2
U6G C51U G84A U146G | -1.28
U7C A21C A24C G62C C76A G133C | ≤ -4.2
U7C C85U U145A | -2.42
U6G U7C A20U A39G A40C G42C G59A G92U C93G A115U C116U | ≤ -4.2
U7A A23C C36A U56A A91U C132G | -3.78
U6G U55A | 0.402
U6G C75U | 0.374
U7A C8G A89C C95G | ≤ -4.2
U7C A17G A23U A52C C76G C85U C93A G128U G152C | ≤ -4.2
U7A A16U A20G G48A C57A G58U A64G C87A G92U G126A C129A A137C | ≤ -4.2
U6G C14U | -1.09
U7C G46C U56A U77C G81A G86U G100A G133U | ≤ -4.2
U7C C18G G86A U148A | -4.2
U6G C85A C125G | -0.955
U7A C75U G94C A122G U145A | -3.63

Variant | polymerase ribozyme fitness (log ratio)
U7A A22C A24U C54G G83A | ≤ -4.2
U6G C35U C75A A98G A121U | ≤ -4.2
U7A A28U G46C G50A C95G C103G C129A U144C | ≤ -4.2
U6G G68A | -3.62
U7A C18U A91U A97U U102C U144G | ≤ -4.2
U6G C27A U33C C85A G88A U134C | ≤ -4.2
U6G G48C A52G C96A A121U G140A | ≤ -4.2
U7A U9A A98G A121G | ≤ -4.2
U6G C93A | -1.75
U6G C93G | -3.18
U7A A28U A40U U55A C57A C76U U78G C96G C123G | ≤ -4.2
U7A C14G C32U A106G U148C | ≤ -4.2
U7A A17U A19C C38U G58U G86A G92C | ≤ -4.2
U6G C87U | -0.579
U6G C87G | -3.6
U7C A19U C35U A37G U55G C76G G86A G88U C103G G124A | ≤ -4.2
U7A U31G G81C G84U C95U A107G G128U A137G | ≤ -4.2
U7C C27A C69G G86A G100C | ≤ -4.2
U7A A21U G25U U44A A49C C54A C63G C85U G86U C99G | ≤ -4.2
U6G U53C G92C U144C | -1.5
U7C A20C A89G C96A U111C C118U | ≤ -4.2
U7C C8A C32U A91U A121G U134C | ≤ -4.2
U7C A23G U82G G83A U146G A150G G152C | ≤ -4.2
U7C C76U G84A A119U U145G | -3.32

Variant | polymerase ribozyme fitness (log ratio)
U7A A24C G50U A52U C87G | ≤ -4.2
U6G C63U G83U A98U A122U | -0.875
U7C C18G G94A G117C | -3.67
U7C C38U C95A A119U | -2.61
U6G C99G G141C | -2.05
U7C C27U C38U C54G A64G C75U C85A C96U C105G C114U | ≤ -4.2
U7A C8U A73G G81A G83A C96A A119U G124C | ≤ -4.2
U7A C76U G94A C105U U151A | -3.84
U6G C54G A73U U102A A106G U127G C132G U135G | ≤ -4.2
U6G G92A | -2.59
U6G G86C U135G | ≤ -4.2
U7C C57G A98G | -3.3
U7A G92U | -3.96
U6G C85U | -0.35
U6G C85A | -1.09
U7A C14A A23C C75G C85U | ≤ -4.2
U7A G11A A41G A66C U77C C85U A106C U151A | ≤ -4.2
U6G G128U | -3.77
U6G C114A | -3.22
U7A U55A C85U C114A G136C | ≤ -4.2
U7A C79G G94C C114A C118G | ≤ -4.2
U7A U53A U56A | ≤ -4.2
U7C A20U C96A C103U U109C G152U | -3.42
U6G U13G A16G C85G G86A A142G | ≤ -4.2

Variant | polymerase ribozyme fitness (log ratio)
U6G U13G C57G | -2.26
U6G G50U C95U | 0.0133
U6G G59C | 0.358
U7A A20C C93G C116G U135G | ≤ -4.2
U6G G59C C85U G92U U127A | ≤ -4.2
U7C G46A G65U C76A U77G C79A G94A C96A U135A U144G G152U | ≤ -4.2
U7C G11C G59A G71C C76U G84U A138C | ≤ -4.2
U7C C10U U55A G62A G65C U78G C96A | ≤ -4.2
U7C A24U C96U A107G C125G U144C U151C | -4.07
U7A A73G C87G C131A | ≤ -4.2
U6G G59A G92A C95A C105U | -4.19
U6G U78A G84U A91C C108A A121C | ≤ -4.2
U6G C87U C131U | 0.928
U6G U55G G92A | -3.71
U6G G25U G50C G92A | ≤ -4.2
U7C G50U G140U | ≤ -4.2
U7C A23U C87A A89G C116U C125U | ≤ -4.2
U7C A12G C96U | -2.17
U6G U44G A47U U53C A64C C103A | ≤ -4.2
U7A C54A C72A | ≤ -4.2
U7C A73G U82A G136C | ≤ -4.2
U7A G94C U111C U135A A138U | -3.87
U7A C35A C87A C93A | ≤ -4.2
U6G C10U A12U U33G A37U C95A U135A G141U U144C | ≤ -4.2

Variant | polymerase ribozyme fitness (log ratio)
U7C C27U A49C A52G C79A C87G C93G C96A A97U C99U C108U A120U | -4.18
U7A A29U C35U A66C U82G A113U | -3.86
U6G U78G C93U A98G A142C | -3.99
U7C C38A C51G G83U G84A | ≤ -4.2
U6G C69U G84A A106C | -2.47
U7C C35U | -2.29
U6G C63U A89C | -0.961
U6G U13G U44A A60G C69G C93A C118A | ≤ -4.2
U6G U31G U61A C95A G136A | -1.38
U7A A121U A138G | ≤ -4.2
U6G G46A U56C C76G G81C A91C A106G A137U U144C U151A | ≤ -4.2
U7A C8G U13G U90G C95G U134A | ≤ -4.2
U6G C27U A49C C79G A89U C93U C132A | ≤ -4.2
U6G U134C | -0.128
U7C A12C A24C C96U A120C | ≤ -4.2
U6G C35U G58C C96U A113C U135C A147U | ≤ -4.2
U7A C10A C14U C32G C36A U53G U55G U61A G67C U82G C87G C96U C103G | ≤ -4.2
U7A A19C G92C C105A A115U C116U A137U | ≤ -4.2
U7A G94A | -3.07
U6G G58C C131A | -2.15
U7A C85U | -2.9
U7C A20C A49C U77C A91U | ≤ -4.2
U7A U55A | -3.25
U7A C43U A49G A110G | ≤ -4.2

Variant | polymerase ribozyme fitness (log ratio)
U7A A26U C27U A41U U55G C93U | ≤ -4.2
U7A A22G C72A A122U C131A | ≤ -4.2
U7A A17C A142C | -3.31
U6G C10G G50C U55A G58A C72G C95U C96U U144G U148A | ≤ -4.2
U6G C57G C85U A98U | -1.17
U6G G48U G58A C76G U82C C93U A122C A138G A142G | ≤ -4.2
U6G C96U | -0.759
U7A A26G C75G C93A | -4.13
U7A A60G C85U U144C | -3.61
U6G G65U G71C G94A C103G A122G | ≤ -4.2
U7A U44A | ≤ -4.2
U7C C18U U31A G81A G84U | -3.99
U7C A24U G84U C87G A107C G112U G133U | ≤ -4.2
U7C C18U U61C C69A C93A C114U | ≤ -4.2
U7A U9A A21U U55A G59A C99G C129U A147C | ≤ -4.2
U7A C93G A113U A138C | ≤ -4.2
U7A C14U U31A C57G U61A A89U U90C C99A A115U A122C | ≤ -4.2
U6G G50C | -3.07
U7A A119G A120C | -3.25
U6G G34C A52U A89G C93A A107U A115U A150C | ≤ -4.2
U7A C14G U45A G50A C57A G71C A110U G112U C125G C132U | ≤ -4.2
U6G G141A | 0.243
U6G C75G U90A G92U | ≤ -4.2
